[ ]: non-standard residue; d: D form. Gu = N-terminal tetramethylguanidine; Orn = NCCC[C@H](N)C(=O)O
B1: cf-Api137 (5(6)-carboxyfluorescein-labeled Api137, Gu-ONNRPVYIPRPRPPHPRL-OH) (peptide)
chain: Gu-[Orn](5(6)‑carboxyfluorescein)NNRPVYIPRPRPPHPRL-OH
B2: cf-Api88 (5(6)-carboxyfluorescein-labeled Api88, Gu-ONNRPVYIPRPRPPHPRL-NH2) (peptide)
chain: Gu-[Orn](5(6)‑carboxyfluorescein)NNRPVYIPRPRPPHPRL-NH2

What was measured:
Assay in all cases: fluorescence polarisation; cf-labeled peptide (10 µL of 40 nmol/L) added to a 2-fold dilution series (22 steps, 10 µL) of pure 70S ribosome, 50S or 30S subunit; ribosome preparation buffer (20 mmol/L HEPES-KOH, 6 mmol/L MgCl2, 30 mmol/L NH4Cl, pH 7.6); 28 ± 1 °C, 90 min; apparent Kd (average over at least two or three sites)
Settings in all cases: both partners purified
[1] = biological target: purified E. coli 30S ribosomal subunit (E. coli (endogenous in MRE600))
[2] = biological target: purified E. coli 70S ribosome (E. coli (endogenous in BW25113), UniProt P60723 1-201; P61175 1-110; P0ADZ0 1-100; P0A7M6 1-63; P0A7J3 1-165)
[3] = biological target: purified E. coli 50S ribosomal subunit (E. coli (endogenous in MRE600), UniProt P60723 1-201; P61175 1-110; P0ADZ0 1-100; P0A7M6 1-63; P0A7J3 1-165)

Binder	fold weaker binding than to the 50S subunit [1] [fold]	Kd [2] [nM]	Kd [3] [nM]
B1	~10	4730	2200
B2	~23	1800	600

Source: paper PMC11087509, “Multimodal binding and inhibition of bacterial ribosomes by the antimicrobial peptides Api137 and Api88” (Nature Communications, 2024)
